Experimental data published in PMC6265484, “Homodimerization regulates an endothelial specific signature of the SOX18 transcription factor”.

Columns and labels:
SOX18 full length [1] = molecular target: T1, SOX18 full length (mouse, UniProt P43680 1-377); experiment: fluorescence polarization; 2 mM Mg2+; FP: 30 mM HEPES pH 7.5, 100 mM KCl, 40 mM NaCl, 10 mM ammonium acetate, 10 mM guanidinium HCl, 2 mM MgCl2, 0.5 mM EDTA, 0.01% NP-40, room temp, 5 nM DNA, 5-150; conditions: protein: recombinant; tags: N-terminal HIS-GST; chain copies: 2; label: 5'-fluorescein; blunt
SOX18 full length [2] = molecular target: T1, SOX18 full length; experiment: fluorescence polarization; 2 mM Mg2+; maximum binding (highest mP); FP: 30 mM HEPES pH 7.5, 100 mM KCl, 40 mM NaCl, 10 mM ammonium acetate, 10 mM guanidinium HCl, 2 mM MgCl2, 0.5 mM EDTA, 0.01% NP-40, room temp, 5 nM DNA, 5-150; conditions: protein: recombinant; tags: N-terminal HIS-GST; chain copies: 2; label: 5'-fluorescein; blunt
SOX18-HMG (Sox18_79) = SOX18-HMG (Sox18_79) (mouse, UniProt P43680 77-155); experiment: EMSA; 15 nM protein, 1 nM DNA, 50 uM Zn2+; two HMG bind; FP: 30 mM HEPES pH 7.5, 100 mM KCl, 40 mM NaCl, 10 mM ammonium acetate, 10 mM guanidinium HCl, 2 mM MgCl2, 0.5 mM EDTA, 0.01% NP-40, room temp, 5 nM DNA, 5-150; conditions: protein: recombinant; tags: pETG20A or pHisMBP vector; chain copies: 2; label: 5'-Cy5; blunt
SOX9-HMG = SOX9-HMG (UniProt Q04887 105-173); experiment: EMSA; 50 uM Zn2+; two HMG bind; FP: 30 mM HEPES pH 7.5, 100 mM KCl, 40 mM NaCl, 10 mM ammonium acetate, 10 mM guanidinium HCl, 2 mM MgCl2, 0.5 mM EDTA, 0.01% NP-40, room temp, 5 nM DNA, 5-150; conditions: protein: recombinant; chain copies: 2; label: 5'-Cy5; blunt
SOX9-HMG, sequence (Q04887 105-173): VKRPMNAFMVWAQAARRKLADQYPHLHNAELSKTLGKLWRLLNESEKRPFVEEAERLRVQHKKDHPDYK

T1 sequence (P43680 whole entry): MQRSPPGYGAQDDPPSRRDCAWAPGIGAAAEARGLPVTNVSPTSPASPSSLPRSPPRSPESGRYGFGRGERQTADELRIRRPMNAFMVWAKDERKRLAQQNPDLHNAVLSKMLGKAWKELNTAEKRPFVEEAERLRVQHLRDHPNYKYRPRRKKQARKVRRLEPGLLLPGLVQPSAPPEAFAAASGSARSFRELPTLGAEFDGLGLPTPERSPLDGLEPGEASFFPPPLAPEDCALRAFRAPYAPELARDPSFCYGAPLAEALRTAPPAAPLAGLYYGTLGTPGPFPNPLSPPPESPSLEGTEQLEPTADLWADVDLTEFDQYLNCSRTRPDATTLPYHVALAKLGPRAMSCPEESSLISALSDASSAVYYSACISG
SOX18-HMG (Sox18_79), sequence (P43680 77-155): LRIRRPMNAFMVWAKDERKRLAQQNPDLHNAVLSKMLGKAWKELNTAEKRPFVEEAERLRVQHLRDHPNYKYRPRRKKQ

B1: IR1 (FP) (dsDNA)
DNA 1: CGCCAGTAGGGCAACAATGATTGTTGCTTCCGGGGGC
DNA 2: GCCCCCGGAAGCAACAATCATTGTTGCCCTACTGGCG
Question: B1 was tested. Which binding signal (SOX18 full length [1]) did it give?
Answer: ~0.5 occupancy relative to IR5

B2: IR5 (FP) (dsDNA)
DNA 1: CGCCAGTAGGAACAATGCGGCATTGTTTTCCGGGGGC
DNA 2: GCCCCCGGAAAACAATGCCGCATTGTTCCTACTGGCG
Question: Does B2 bind (SOX18 full length [2])?
Answer: binds

B3: IR5 (EMSA) (dsDNA)
DNA 1: CGCCAGTAGGAACAATGCGGCATTGTTTTCCGGGGGC
DNA 2: GCCCCCGGAAAACAATGCCGCATTGTTCCTACTGGCG
Question: Does B3 bind (SOX18-HMG (Sox18_79))?
Answer: binds

Question: Does B3 bind (SOX9-HMG)?
Answer: binds
